The values below come from patent publication US20260226184A1.

For assay [1], the target named is CAR that binds human BCMA (scFv derived from anti-human BCMA antibody clone MSK54, human 41BB and CD3zeta intracellular signaling domains), on human T cells. Briefly: flow cytometry, staining of BCMA CAR T cells with varying concentrations, Alexa647-labeled anti-FLAG secondary.
Assay [2] shares this target. Description: cell-based or functional assay.
For assay [3], the target named is IL-2R (IL-2 receptor on the BCMA CAR T cells) (human) (UniProt P01589). Briefly: cell-based or functional assay.
In assay [4] the target is CAR that binds human CD19 (scFv derived from anti-human CD19 antibody clone FMC69, human CD28 and CD3zeta intracellular signaling domains), on human T cells. Briefly: flow cytometry, dose-dependent staining of CD19 CAR T cells, y-axis %Binding; the value stands above the plot, in which only this curve rises.
The target in assay [5] is CAR that binds human BCMA (scFv derived from anti-human BCMA antibody clone MSK54, human 41BB and CD3zeta intracellular signaling domains), on human T cells. Briefly: flow cytometry, anti-CD45 (y) against AF647-tagged BCMA-CH3 (x); CAR + Treatment mouse (BCMA CAR T cells and BCMA-muIL2); Tumor Eye.
The target is the same in assay [6]. Description: flow cytometry, anti-CD45 (y) against AF647-tagged BCMA-CH3 (x); CAR only mouse, upper row (CAR T cells without CAR-engager; the text says little to no CD45+ cells persisted); Bone Marrow Right.
Assay [7] shares this target. Description: flow cytometry, anti-CD45 (y) against AF647-tagged BCMA-CH3 (x); CAR + Treatment mouse (BCMA CAR T cells and BCMA-muIL2); Liver.
Assay [8] shares this target. Description: flow cytometry, anti-CD45 (y) against AF647-tagged BCMA-CH3 (x); CAR only mouse, upper row (CAR T cells without CAR-engager; the text says little to no CD45+ cells persisted); Liver.
Assay [9] has the same target. Briefly: flow cytometry, anti-CD45 (y) against AF647-tagged BCMA-CH3 (x); CAR only mouse, lower row (CAR T cells without CAR-engager; the text says little to no CD45+ cells persisted); Bone Marrow Right.
The target is the same in assay [10]. Description: flow cytometry, anti-CD45 (y) against AF647-tagged BCMA-CH3 (x); CAR + Treatment mouse (BCMA CAR T cells and BCMA-muIL2); Spleen.
Assay [11] shares this target. Description: flow cytometry, anti-CD45 (y) against AF647-tagged BCMA-CH3 (x); CAR only mouse, lower row (CAR T cells without CAR-engager; the text says little to no CD45+ cells persisted); Bone Marrow Left.
Assay [12] has the same target. Briefly: flow cytometry, anti-CD45 (y) against AF647-tagged BCMA-CH3 (x); CAR only mouse, lower row (CAR T cells without CAR-engager; the text says little to no CD45+ cells persisted); Lymph node.
For assay [13] the target is unchanged. Description: flow cytometry, anti-CD45 (y) against AF647-tagged BCMA-CH3 (x); CAR only mouse, lower row (CAR T cells without CAR-engager; the text says little to no CD45+ cells persisted); Kidney.
Assay [14] has the same target. Briefly: flow cytometry, anti-CD45 (y) against AF647-tagged BCMA-CH3 (x); CAR only mouse, upper row (CAR T cells without CAR-engager; the text says little to no CD45+ cells persisted); Kidney.
For assay [15] the target is unchanged. Description: flow cytometry, anti-CD45 (y) against AF647-tagged BCMA-CH3 (x); CAR + Treatment mouse (BCMA CAR T cells and BCMA-muIL2); Lymph node.
For assay [16] the target is unchanged. Description: flow cytometry, anti-CD45 (y) against AF647-tagged BCMA-CH3 (x); CAR only mouse, lower row (CAR T cells without CAR-engager; the text says little to no CD45+ cells persisted); Blood.
Assay [17] shares this target. Description: flow cytometry, anti-CD45 (y) against AF647-tagged BCMA-CH3 (x); CAR only mouse, upper row (CAR T cells without CAR-engager; the text says little to no CD45+ cells persisted); Blood.
Assay [18] shares this target. Description: flow cytometry, anti-CD45 (y) against AF647-tagged BCMA-CH3 (x); CAR + Treatment mouse (BCMA CAR T cells and BCMA-muIL2); Kidney.
For assay [19] the target is unchanged. Briefly: flow cytometry, anti-CD45 (y) against AF647-tagged BCMA-CH3 (x); CAR only mouse, lower row (CAR T cells without CAR-engager; the text says little to no CD45+ cells persisted); Liver.
The target is the same in assay [20]. Description: flow cytometry, anti-CD45 (y) against AF647-tagged BCMA-CH3 (x); CAR only mouse, upper row (CAR T cells without CAR-engager; the text says little to no CD45+ cells persisted); Lung.
The target is the same in assay [21]. Description: flow cytometry, anti-CD45 (y) against AF647-tagged BCMA-CH3 (x); CAR only mouse, upper row (CAR T cells without CAR-engager; the text says little to no CD45+ cells persisted); Spleen.
For assay [22] the target is unchanged. Briefly: flow cytometry, anti-CD45 (y) against AF647-tagged BCMA-CH3 (x); CAR only mouse, upper row (CAR T cells without CAR-engager; the text says little to no CD45+ cells persisted); Lymph node.
For assay [23] the target is unchanged. Description: flow cytometry, anti-CD45 (y) against AF647-tagged BCMA-CH3 (x); CAR + Treatment mouse (BCMA CAR T cells and BCMA-muIL2); Blood.
Assay [24] has the same target. Briefly: flow cytometry, anti-CD45 (y) against AF647-tagged BCMA-CH3 (x); CAR + Treatment mouse (BCMA CAR T cells and BCMA-muIL2); Lung.
The target is the same in assay [25]. Briefly: flow cytometry, anti-CD45 (y) against AF647-tagged BCMA-CH3 (x); CAR only mouse, upper row (CAR T cells without CAR-engager; the text says little to no CD45+ cells persisted); Bone Marrow Left.
For assay [26] the target is unchanged. Briefly: flow cytometry, anti-CD45 (y) against AF647-tagged BCMA-CH3 (x); CAR + Treatment mouse (BCMA CAR T cells and BCMA-muIL2); Bone Marrow Left.
The target is the same in assay [27]. Briefly: flow cytometry, anti-CD45 (y) against AF647-tagged BCMA-CH3 (x); CAR only mouse, lower row (CAR T cells without CAR-engager; the text says little to no CD45+ cells persisted); Lung.
For assay [28] the target is unchanged. Description: flow cytometry, dose-dependent staining of BCMA CAR T cells, secondary Alexa647-labeled anti-FLAG antibody, y-axis %Binding.
The target is the same in assay [29]. Briefly: flow cytometry, anti-CD45 (y) against AF647-tagged BCMA-CH3 (x); CAR + Treatment mouse (BCMA CAR T cells and BCMA-muIL2); Bone Marrow Right.
The target is the same in assay [30]. Briefly: cell-based or functional assay. This is another data set of the same source.

Chain of UniProt P01589 (P01589 22-272, chain 1 of 3): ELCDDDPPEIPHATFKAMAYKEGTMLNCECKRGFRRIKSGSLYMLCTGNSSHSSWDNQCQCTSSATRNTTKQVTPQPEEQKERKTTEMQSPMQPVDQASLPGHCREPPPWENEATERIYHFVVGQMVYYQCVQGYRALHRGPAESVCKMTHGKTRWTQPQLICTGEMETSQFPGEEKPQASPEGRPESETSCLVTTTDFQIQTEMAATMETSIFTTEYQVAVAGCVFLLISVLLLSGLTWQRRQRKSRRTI
Chain of UniProt P01589 (P14784 27-551, chain 2 of 3, further chain): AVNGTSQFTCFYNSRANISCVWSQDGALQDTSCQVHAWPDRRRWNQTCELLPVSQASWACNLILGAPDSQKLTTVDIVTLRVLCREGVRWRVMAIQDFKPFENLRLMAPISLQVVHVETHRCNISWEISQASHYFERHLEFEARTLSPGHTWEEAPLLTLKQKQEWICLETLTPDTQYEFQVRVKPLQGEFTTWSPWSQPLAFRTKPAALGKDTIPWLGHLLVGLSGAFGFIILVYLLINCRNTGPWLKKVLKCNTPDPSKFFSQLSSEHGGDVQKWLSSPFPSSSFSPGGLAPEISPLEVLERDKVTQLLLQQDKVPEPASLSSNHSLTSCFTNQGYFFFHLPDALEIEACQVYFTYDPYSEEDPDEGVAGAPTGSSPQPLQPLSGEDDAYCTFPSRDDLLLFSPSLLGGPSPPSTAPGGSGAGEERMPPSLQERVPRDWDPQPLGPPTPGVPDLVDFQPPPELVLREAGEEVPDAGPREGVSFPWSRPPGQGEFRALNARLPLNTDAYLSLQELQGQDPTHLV
Chain of UniProt P01589 (P31785 23-369, chain 3 of 3, further chain): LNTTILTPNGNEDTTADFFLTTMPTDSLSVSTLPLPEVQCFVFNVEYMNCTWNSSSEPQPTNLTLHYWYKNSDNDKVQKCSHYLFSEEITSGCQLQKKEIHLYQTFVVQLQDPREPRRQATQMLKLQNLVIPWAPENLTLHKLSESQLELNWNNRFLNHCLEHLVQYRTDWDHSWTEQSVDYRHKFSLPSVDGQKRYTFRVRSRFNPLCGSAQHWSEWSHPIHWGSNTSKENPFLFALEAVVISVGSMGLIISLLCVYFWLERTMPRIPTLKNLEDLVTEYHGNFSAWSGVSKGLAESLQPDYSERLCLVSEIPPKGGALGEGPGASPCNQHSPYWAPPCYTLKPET

In assay [1], “BCMA-muIL2 CAR-engager (BCMA-CH3-muIL2-muIL2)” had an EC50 of 0.21 nM. The molecule also gave a sensitivity of STAT5 phosphorylation against VHH-muIL2 in assay [2] above 200 fold. In assay [3], this molecule displayed a phosphorylation of STAT5 (pY694) in BCMA CAR T cells, EC50 of 0.014 nM.

Turning to “VHH-muIL2 (control construct with an irrelevant nanobody in place of the BCMA ectodomain in the CH3-muIL2 construct)”, the phosphorylation of STAT5 (pY694) in BCMA CAR T cells, EC50 in [3] worked out at 3.9 nM.

In [4], “CD19-muIL2 CAR-engager (from UniProt P15391 20-291)” showed an EC50 of 0.59 nM.

B1: BCMA-CH3 (dimeric BCMA lacking the muIL2) (protein)
chain: MLQMAGQCSQNEYFDSLLHACIPCQLRCSSNTPPLTCQRYCNASVTNSVKGTNAEPKSPKSADKTHTAPQPREPQVYTLPPSRDELTKNQVSLTCLVKGFYPSDIAVEWESNGQPENNYKTTPPVLDSDGSFFLYSKLTVDKSRWQQGNVFSCSVMHEALHNHYTQKSLSLSPGK
Take B1: the percent of cells in the upper right quadrant (CD45+ AF647+) in assay [5] was determined as 1.38%; in assay [6], 0.02%; in [7], 3.97%; in assay [8], 0.13%; in assay [9], 0.032%; in assay [10], 47.4%. The percent of cells in the upper right quadrant (CD45+ AF647+) in assay [11] was found to be 0.013%; in assay [12] it was 5.26%; in assay [13] it was 0.044%; in [14], 0.21%; in [15], 12.2%; in assay [16] it was 0.13%. The percent of cells in the upper right quadrant (CD45+ AF647+) in assay [17] came to 0.2%; in assay [18], 1.69%; in [19], 0.058%; in assay [20], 0.18%; in [21] it was 0.00572%; in assay [22], 1.08%. Besides, the percent of cells in the upper right quadrant (CD45+ AF647+) in [23] was determined as 0.69%; in assay [24], 2.69%; in [25], 0.054%; in [26] it was 0.75%; in [27], 0.096%; in [29], 1.01%. The same molecule gave an EC50 (read off the curve) in [28] of 0.2 nM.

B2: BCMA-CH3-Neo-2/15 CAR-engager (protein)
chain: MLQMAGQCSQNEYFDSLLHACIPCQLRCSSNTPPLTCQRYCNASVTNSVKGTNAEPKSPKSADKTHTAPQPREPQVYTLPPSRDELTKNQVSLTCLVKGFYPSDIAVEWESNGQPENNYKTTPPVLDSDGSFFLYSKLTVDKSRWQQGNVFSCSVMHEALHNHYTQKSLSLSPGKGSHMPKKKIQLHAEHALYDALMILNIVKTNSPPAEEKLEDYAFNFELILEEIARLFESGDQKDEAEKAKRMKEWMKRIKTTASEDEQEEMANAIITILQSWIFS
Molecule B2 had a lowest threshold of induced expression of CD69 in CAR T cells in assay [30] of 0.01 nM.
